Test results reported in patent publication US20200399382A1 (ARGENX, published 2020).

Columns and labels:
[1] = target: T1, mouse IL-4Rα on cells (HT-2 cells, purified mouse B cells) (mouse, UniProt P16382 26-810); assay: cell-based or functional assay
T1 sequence (looked up): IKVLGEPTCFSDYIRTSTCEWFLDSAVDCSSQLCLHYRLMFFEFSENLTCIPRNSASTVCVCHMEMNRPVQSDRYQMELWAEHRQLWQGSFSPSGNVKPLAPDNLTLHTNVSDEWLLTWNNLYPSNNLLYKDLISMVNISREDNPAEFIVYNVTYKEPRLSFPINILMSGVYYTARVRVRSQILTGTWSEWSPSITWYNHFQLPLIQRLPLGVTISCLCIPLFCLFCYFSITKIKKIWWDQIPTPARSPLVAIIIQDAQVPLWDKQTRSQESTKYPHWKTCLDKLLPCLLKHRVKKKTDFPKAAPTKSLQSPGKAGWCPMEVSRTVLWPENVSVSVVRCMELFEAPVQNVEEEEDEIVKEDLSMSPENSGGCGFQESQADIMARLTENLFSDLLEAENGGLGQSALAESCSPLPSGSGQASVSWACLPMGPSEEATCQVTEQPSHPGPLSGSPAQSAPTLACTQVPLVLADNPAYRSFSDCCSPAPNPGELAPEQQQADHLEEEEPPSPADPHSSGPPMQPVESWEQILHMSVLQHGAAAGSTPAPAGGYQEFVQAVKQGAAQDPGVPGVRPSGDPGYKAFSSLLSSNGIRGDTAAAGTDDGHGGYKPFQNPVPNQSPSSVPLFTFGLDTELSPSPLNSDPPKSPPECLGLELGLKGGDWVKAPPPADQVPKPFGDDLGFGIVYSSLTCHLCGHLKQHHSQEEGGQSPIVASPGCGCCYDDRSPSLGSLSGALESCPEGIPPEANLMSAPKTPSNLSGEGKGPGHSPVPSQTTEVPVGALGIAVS

[2] = target: T2, mouse IL-4Rα (SPR target of Example 2) (mouse, UniProt P16382 26-233, limits assumed); assay: SPR, mAb (0-20 µg/mL) over immobilised target; immobilized IL-4Rα target; IL-4Rα mAb in solution
T2 construct: also called immobilized target IL-4Rα
T2 sequence (looked up): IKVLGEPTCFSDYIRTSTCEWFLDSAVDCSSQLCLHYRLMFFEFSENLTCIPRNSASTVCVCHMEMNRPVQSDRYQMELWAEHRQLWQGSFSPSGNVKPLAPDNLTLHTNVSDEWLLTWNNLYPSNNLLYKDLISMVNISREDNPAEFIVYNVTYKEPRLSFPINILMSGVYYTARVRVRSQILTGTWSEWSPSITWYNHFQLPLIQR

[3] = target: T3, mouse IL-5 (mouse, UniProt P04401 21-133); assay: SPR sandwich: IL-4Rα-Fc coated, anti-IL-4Rα Ab as 1st injection, IL-5 as 2nd injection
T3 construct: also called mIL-5; recombinant mouse IL-5 (R&D Systems)
T3 sequence (looked up): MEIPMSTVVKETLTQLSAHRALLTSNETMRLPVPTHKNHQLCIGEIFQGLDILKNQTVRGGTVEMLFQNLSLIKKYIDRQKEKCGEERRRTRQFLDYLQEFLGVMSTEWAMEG
Experimental: (§1) The experiment was also performed in reverse order and confirmed the bispecific nature of the molecule as depicted in FIG. 13B.

[4] = target: T3, mouse IL-5; assay: SPR, IL-5 coated, antibody as 1st injection
Experimental: as §1

[5] = target: T4, recombinant mouse IL-4Rα-Fc (mouse, UniProt P16382 26-233); assay: SPR sandwich: IL-5 coated, bispecific as 1st injection, IL-4Rα-Fc as 2nd injection
T4 construct: Bought reagent; also called coated IL-4Rα; injected IL-4Rα; not shown: Fc part
T4 sequence (looked up): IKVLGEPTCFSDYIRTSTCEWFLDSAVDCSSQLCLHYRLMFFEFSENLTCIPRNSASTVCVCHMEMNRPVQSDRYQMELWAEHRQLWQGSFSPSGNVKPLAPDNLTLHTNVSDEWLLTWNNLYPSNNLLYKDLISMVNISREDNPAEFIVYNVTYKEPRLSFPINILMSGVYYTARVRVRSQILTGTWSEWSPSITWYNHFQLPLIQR
Experimental: as §1

[6] = target: T3, mouse IL-5; assay: cell-based or functional assay
[7] = target: T3, mouse IL-5; assay: cell-based or functional assay; remark: listed apart in the source
[8] = target: T4, recombinant mouse IL-4Rα-Fc; assay: SPR, IL-4Rα-Fc coated, antibody as 1st injection
Experimental: as §1

[9] = target: T3, mouse IL-5; assay: SPR, mAb (0-20 µg/mL) over immobilised target; immobilized IL-5 target; IL-5 mAb in solution
[10] = target: T5, human IL-4Rα on the cells of the hIL-4 proliferation assay (human, UniProt P24394 26-825); assay: cell-based or functional assay
T5 sequence (looked up): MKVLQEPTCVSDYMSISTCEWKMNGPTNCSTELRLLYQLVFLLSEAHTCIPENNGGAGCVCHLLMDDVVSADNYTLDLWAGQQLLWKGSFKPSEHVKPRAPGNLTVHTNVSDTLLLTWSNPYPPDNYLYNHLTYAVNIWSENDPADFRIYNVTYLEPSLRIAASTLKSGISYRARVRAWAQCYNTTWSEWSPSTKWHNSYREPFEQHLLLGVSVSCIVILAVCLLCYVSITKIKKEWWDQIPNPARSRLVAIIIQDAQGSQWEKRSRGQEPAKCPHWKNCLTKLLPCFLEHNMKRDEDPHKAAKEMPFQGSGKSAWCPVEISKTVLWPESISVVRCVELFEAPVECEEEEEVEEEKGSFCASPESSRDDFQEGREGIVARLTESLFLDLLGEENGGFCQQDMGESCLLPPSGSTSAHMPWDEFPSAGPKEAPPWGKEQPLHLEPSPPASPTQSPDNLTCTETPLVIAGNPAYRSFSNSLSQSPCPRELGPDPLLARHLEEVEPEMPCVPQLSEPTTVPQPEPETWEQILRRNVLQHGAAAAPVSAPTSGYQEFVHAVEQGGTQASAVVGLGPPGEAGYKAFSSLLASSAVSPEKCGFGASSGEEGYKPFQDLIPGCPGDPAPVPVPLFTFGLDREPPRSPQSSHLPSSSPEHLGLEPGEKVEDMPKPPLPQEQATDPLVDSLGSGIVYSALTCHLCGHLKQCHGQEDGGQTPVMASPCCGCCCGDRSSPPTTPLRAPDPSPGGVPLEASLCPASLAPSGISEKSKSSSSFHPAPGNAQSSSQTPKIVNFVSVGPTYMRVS

[11] = target: T6, human IL-4Rα (SPR target) (human, UniProt P24394 26-232, limits assumed); assay: SPR as described in Example 2
T6 construct: also called recombinant human IL-4Rα-Fc
T6 sequence (looked up): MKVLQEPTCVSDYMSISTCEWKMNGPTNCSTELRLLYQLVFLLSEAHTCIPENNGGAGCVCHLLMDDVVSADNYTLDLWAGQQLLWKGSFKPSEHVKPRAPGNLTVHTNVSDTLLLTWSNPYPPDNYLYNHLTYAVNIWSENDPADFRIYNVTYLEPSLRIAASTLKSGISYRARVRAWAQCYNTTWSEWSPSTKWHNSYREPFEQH

B1: m4RMP36B7 IL-4Rα monospecific antibody (mouse IgG2a) (antibody, V domains shown)
VH: EVQLVESGGGLVQPGGSLRVSCAASGFTFSSYYMAWVRQAPGKGLEWVSHIHAGGSLTQYADSVKGRFTISRDNAKSTLYLQMNSLKPEDTALYYCVRIYGDATSYDYWGQGTQVSVSS
VL: HSAVTQPPSVSGSPGKTVTISCAGTSSDIGGYNYVSWYQQFPGTAPKLLIYEVNKRASGIPDRFSGSKSGNTASLSISGLQSEDEADYYCASYRSNNNIVFGGGTHLTVL
notes: also called IL-4Rα mAb; IL-4Rα monospecific Ab
EC50, inhibition of mouse IL-4-induced proliferation of HT-2 cells [1]: 0.2 nM
Kd [2]: 0.08 nM
binding result [3]: no binding

B2: IL-4Rα/IL-5 bispecific antibody (knob-into-hole, mouse IgG2a; 4RMP36B7 arm and 5MP95G7 arm) (bispecific antibody, V domains shown)
VH 1: EVQLVESGGGLVQPGGSLRVSCAASGFTFSSYYMAWVRQAPGKGLEWVSHIHAGGSLTQYADSVKGRFTISRDNAKSTLYLQMNSLKPEDTALYYCVRIYGDATSYDYWGQGTQVSVSS
VL 1: HSAVTQPPSVSGSPGKTVTISCAGTSSDIGGYNYVSWYQQFPGTAPKLLIYEVNKRASGIPDRFSGSKSGNTASLSISGLQSEDEADYYCASYRSNNNIVFGGGTHLTVL
VH 2: ELQVVESGGGLVQPGGSLRLSCAASGFTFSSYGMSWVRQAPGKGLEWVSTISRGGDSTSYADSVKGRFTISKDNAKNTLYLQMNSLEPEDTAVYYCANLGRLGFGRGQGTQVTVSS
VL 2: SYELTQPPSVSGSPGKTLTISCAGTSSDIGDWNYVSWFQQLPGTAPKLLISEVNKRASGIPDRFSGSKSGNTASLSISGLQSEDEADYYCTSYRSGNNWVFGGGTHLTVL
notes: Murine Fc: the 4RMP36B7 heavy chain carries T366S, L368A and Y407V in CH3, the 5MP95G7 heavy chain carries T366W; also called IL-4Rα/IL-5 bispecific Ab; bispecific Ab
binding result [4]: binds
binding result [5]: binds

B3: 95G7hIgG1 (IL-5 antibody 5MP95G7 as human IgG1) (antibody, V domains shown)
VH: ELQVVESGGGLVQPGGSLRLSCAASGFTFSSYGMSWVRQAPGKGLEWVSTISRGGDSTSYADSVKGRFTISKDNAKNTLYLQMNSLEPEDTAVYYCANLGRLGFGRGQGTQVTVSS
VL: SYELTQPPSVSGSPGKTLTISCAGTSSDIGDWNYVSWFQQLPGTAPKLLISEVNKRASGIPDRFSGSKSGNTASLSISGLQSEDEADYYCTSYRSGNNWVFGGGTHLTVL
EC50 (nM), inhibition of mIL-5-induced (0.25 ng/mL) proliferation of TF-1 cells [6]: 1.86 nM

B4: m5MP95G7 IL-5 monospecific antibody (mouse IgG2a) (antibody, V domains shown)
VH: ELQVVESGGGLVQPGGSLRLSCAASGFTFSSYGMSWVRQAPGKGLEWVSTISRGGDSTSYADSVKGRFTISKDNAKNTLYLQMNSLEPEDTAVYYCANLGRLGFGRGQGTQVTVSS
VL: SYELTQPPSVSGSPGKTLTISCAGTSSDIGDWNYVSWFQQLPGTAPKLLISEVNKRASGIPDRFSGSKSGNTASLSISGLQSEDEADYYCTSYRSGNNWVFGGGTHLTVL
notes: also called IL-5 mAb; IL-5 monospecific Ab
EC50, inhibition of mouse IL-5-induced proliferation of TF-1 cells [7]: 0.6 nM
EC50 (nM), inhibition of mIL-5-induced (0.25 ng/mL) proliferation of TF-1 cells [6]: 1.75 nM
binding result [8]: no binding
Kd [9]: 0.002 nM

B5: h4R3B2 human IL-4Rα mAb (antibody, V domains shown)
VH: QLQLVESGGGLVQPGGSLRLSCAASGFTFSSYDMTWVRQAPGKGLEWVSAINSGGGSTNYADSVKGRVTISRDNAKNTLYLQMNSLKPEDTAVYFCARALRTVVHDRRLFYIDSWGQGTQVTVSS
VL: SYELTQSPSVSVALRQTAKITCGGNNIGSKSAQWYQQKPGQAPVLVIYADSRRPSGIPERFSGSNSGNTATLTVSGAQAEDEADYYCQVWDTSAVVFGGGTRLTVL
notes: also called h4RMP3B2; 4RMP3B2
IC50 (nM), proliferation assay with hIL-4 (1.5 ng/mL) [10]: 0.4 nM
Kd [11]: 0.0818 nM

B6: h4R5D1 human IL-4Rα mAb (antibody, V domains shown)
VH: QLQLVESGGGLVQPGGSLRLSCAASGFTFSSYIMSWVRQAPGKGLEWVSGISSGGGITAYADSVKGRFTISRDNAKNTLYLQMNSLKPDDTAVYYCVAGLLRVEGYWGQGTQVTVSS
VL: QTVVTQEPSLSVSPGGTVTLTCGLSSGSVTSSNYPGWYQQTPGQAPRSLIYATASRHSGVPSRYSGSISGNKATLTITGAEPEDEADYYCALHKGTYVFGGGTKLTVL
notes: also called h4RMP5D1; 4RMP5D1
IC50 (nM), proliferation assay with hIL-4 (1.5 ng/mL) [10]: 0.2 nM
Kd [11]: 0.0442 nM

B7: h4R3D6 human IL-4Rα mAb (antibody, V domains shown)
VH: QVQLQESGGGLVQPGGSLRLSCAASGFTFSSYSLTWVRQAPGKGLEWVSTIKARGGTTLYADSVKDRFTISRDNAKNTLYLLMNSLKPEDTAVYYCAKPLYNNFAGDFGSWGQGTTVTVSS
VL: DIQMTQSPSSLSASLGDRVTITCQASQSISSYLAWYQQKPGQAPKLLIYGGSRLQTGVPSRFSGSGSGTSFTLTISGLETEDLATYYCLQDYSWPLTFGQGTKVELK
notes: also called 4RMP3D6
IC50 (nM), proliferation assay with hIL-4 (1.5 ng/mL) [10]: 0.6 nM
Kd [11]: 0.0551 nM
